# Values of other authors as cited in paper PMC3046808.
# Molecular target: Gag (Human immunodeficiency virus 1) (UniProt O93182)
# Sequence of Gag (O93182 2-500): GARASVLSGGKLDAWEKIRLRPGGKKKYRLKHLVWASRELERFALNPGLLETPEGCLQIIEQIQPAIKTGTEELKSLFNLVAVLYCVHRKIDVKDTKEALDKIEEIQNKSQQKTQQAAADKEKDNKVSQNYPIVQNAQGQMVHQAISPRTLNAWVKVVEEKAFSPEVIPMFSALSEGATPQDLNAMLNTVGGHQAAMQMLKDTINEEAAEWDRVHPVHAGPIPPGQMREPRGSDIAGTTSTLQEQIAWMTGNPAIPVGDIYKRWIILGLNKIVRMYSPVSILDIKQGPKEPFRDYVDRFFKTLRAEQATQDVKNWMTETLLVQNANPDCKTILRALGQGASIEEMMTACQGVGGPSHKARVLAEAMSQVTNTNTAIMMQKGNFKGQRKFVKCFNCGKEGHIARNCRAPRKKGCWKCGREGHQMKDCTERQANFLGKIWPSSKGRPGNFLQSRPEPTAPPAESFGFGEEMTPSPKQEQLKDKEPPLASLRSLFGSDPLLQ
substance,measurement,value
Gag (from UniProt O93182),Kd,3.9 µM
